Experimental data taken from article PMC3486956.

Biological target: aggregated glucose-6-phosphate dehydrogenase (G6PDH) from Leuconostoc mesenteroides (Leuconostoc mesenteroides) (UniProt P11411)
Test: retention with aggregates on a 0.1-μm filter, SDS-PAGE

Chain of UniProt P11411 (P11411 whole entry): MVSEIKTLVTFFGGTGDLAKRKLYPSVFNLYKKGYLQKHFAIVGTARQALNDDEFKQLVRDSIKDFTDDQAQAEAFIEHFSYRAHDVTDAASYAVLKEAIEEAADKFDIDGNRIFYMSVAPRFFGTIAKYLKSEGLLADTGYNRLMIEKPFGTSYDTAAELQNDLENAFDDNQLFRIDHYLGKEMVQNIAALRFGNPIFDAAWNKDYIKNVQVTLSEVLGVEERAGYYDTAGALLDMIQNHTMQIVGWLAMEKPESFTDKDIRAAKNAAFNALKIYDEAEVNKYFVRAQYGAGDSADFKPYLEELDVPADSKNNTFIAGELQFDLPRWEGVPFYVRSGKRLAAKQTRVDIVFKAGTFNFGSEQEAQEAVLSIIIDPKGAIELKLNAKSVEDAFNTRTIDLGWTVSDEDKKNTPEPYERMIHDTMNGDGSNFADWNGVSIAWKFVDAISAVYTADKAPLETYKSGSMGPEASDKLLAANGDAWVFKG

decrease of the amount bound compared to wt ClpB [%] | Substance
50 | ClpB 2P (GG motif converted into PP) (from UniProt P63284 1-857) (natural protein)
50 | ClpB 4G (four Gly inserted in the N-terminal linker) (from UniProt P63284 1-857) (natural protein)
